Measurements: patent US20230151068A1 (FRED HUTCHINSON CANCER CENTER, published 2023)

Target: T1, TfR (Biotinylated; site and any biotin-acceptor or purification tag are not stated in the passages seen.)
T1 construct: also called biotinylated TfR ectodomain; control protein
Test: flow cytometry, 293F cells displaying YAP (SDGF), co-incubated with biotinylated TfR ectodomain (control protein) and streptavidin-Alexa647

T1 sequence (chain, as listed by the source limits assumed): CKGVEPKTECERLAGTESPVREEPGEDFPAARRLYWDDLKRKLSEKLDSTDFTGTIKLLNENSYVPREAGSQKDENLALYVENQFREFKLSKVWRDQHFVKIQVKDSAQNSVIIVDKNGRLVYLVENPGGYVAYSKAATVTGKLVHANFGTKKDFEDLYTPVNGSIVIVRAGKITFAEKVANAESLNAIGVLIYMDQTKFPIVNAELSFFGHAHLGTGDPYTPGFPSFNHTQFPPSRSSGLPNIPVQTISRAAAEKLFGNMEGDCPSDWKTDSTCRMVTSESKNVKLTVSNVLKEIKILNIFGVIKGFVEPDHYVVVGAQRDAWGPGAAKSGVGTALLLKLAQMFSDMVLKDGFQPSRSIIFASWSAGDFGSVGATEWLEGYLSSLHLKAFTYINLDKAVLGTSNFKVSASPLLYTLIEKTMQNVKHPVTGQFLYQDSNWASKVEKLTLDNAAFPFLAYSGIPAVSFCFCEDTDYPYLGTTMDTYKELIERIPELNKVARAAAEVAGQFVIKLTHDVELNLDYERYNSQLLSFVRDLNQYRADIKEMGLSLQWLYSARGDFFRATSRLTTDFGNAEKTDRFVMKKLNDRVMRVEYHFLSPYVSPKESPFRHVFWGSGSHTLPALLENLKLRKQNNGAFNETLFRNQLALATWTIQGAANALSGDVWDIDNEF

B1: SDGF-YAP (50-171), surface-tethered on HEK-293 cells (other, UniProt P46937 50-171, looked up)
chain: AGHQIVHVRGDSETDLEALFNAVMNPKTANVPQTVPMRLRKLPDSFFKPPEPKSHSRQASTDAGTAGALTPQHVRAHSSPASLQLGAVSPGTLTPTGVVSGPAATPTAQHLRQSSFEIPDDV
binding result: no binding (tested: not shown on the sheet)
